The experiment has as its target recombinant protein A/G (Pierce). The experiment is described as follows: plasmonic metamaterial refractive-index sensing (resonance wavelength shift, reflection probe); protein A/G (500 ug/mL in PBS, 45 min) physisorbed on gold nanodiscs of the sensor, washed 30 min with PBS; IgG 50 ug/mL applied in a microfluidic cell, plateau after 45 min, washed 30 min with …; reflection read at 1 min intervals.

Drawing on PMC11212022, this text covers resonance wavelength shift for 1 substance.

In the case of “antimouse IgG (labeled with FITC) produced in goat (F5262, Sigma-Aldrich) (antibody)”, the resonance wavelength shift amounted to 2 nm.
